Measurements: paper PMC7019770

What follows are substances tested against PRRSV SD16 virions (PRRSV-2 strain SD16) (assay: ELISA-based virus capture assay). Conditions: plates coated with PRA mutant proteins; detection with PRRSV-convalescent swine serum and HRP-labeled goat anti-swine IgG; parent: est. 1.3; read off a plot.

First: PRA, C-terminal domain of MYH9 (recombinant, wild type) E1670A
Second: PRA, C-terminal domain of MYH9 (recombinant, wild type) E1670A; K1673A; E1679A; I1683A
The response of the first is lower: 0.95 OD450 for the first, 1.1 OD450 for the second.

Compared with “PRA, C-terminal domain of MYH9 (recombinant, wild type) E1679A”, “PRA, C-terminal domain of MYH9 (recombinant, wild type) I1683A” is lower in response: 0.99 OD450 for the first, 0.88 OD450 for the second.

With “PRA, C-terminal domain of MYH9 (recombinant, wild type) K1673A” the response was 0.9 OD450.
